The text below walks through data of US20200377590A1 (Hoffmann-La Roche, published 2020).

Where a chain is given by its changes, count along the chain named.

T1: CD81 (UniProt P60033 1-236, limits assumed)
T1 construct: whole, on cells; also called CD81 receptor
T1 sequence (looked up): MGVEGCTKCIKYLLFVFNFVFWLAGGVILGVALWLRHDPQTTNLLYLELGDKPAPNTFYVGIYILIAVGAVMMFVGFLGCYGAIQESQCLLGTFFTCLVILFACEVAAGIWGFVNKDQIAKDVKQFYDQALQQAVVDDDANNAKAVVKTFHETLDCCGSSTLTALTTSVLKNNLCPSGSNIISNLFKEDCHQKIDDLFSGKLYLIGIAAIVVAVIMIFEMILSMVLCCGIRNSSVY

B1: CD81K13 HC 04-hVH_1_69 / LC 03-hVK_1_9 (antibody, V domains shown)
VH: EVQLVESGGGLVQPGRSLRLSCTASGFNFKDSYLHWVRQAPGQGLEWMGRIDTGNGNVKFDPKFQGRVTITADESTSTAYMELSSLRSEDTAVYYCVPYGYGFHSWGQGTLVTVSS
VL: DIQLTQSPSFLSASVGDRVTITCRASENIYRTLAWYQQKPGKAPKLLIYAATTLASGVPSRFSGSGSGTEFTLTISSLQPEDFATYYCQHFWGTPWTFGQGTKVEIK
notes: human constant region
B2: CD81K13 HC 04-hVH_1_69 / LC 5b-hVK_1_39-GA (antibody, V domains shown)
VH: B1 VH
VL: B1 VL with L4M, F10S, A50G, S56D, E70D
notes: human constant region
B3: CD81K13 HC 04-hVH_1_69 / LC 06-hVK_1_39 (antibody, V domains shown)
VH: B1 VH
VL: B1 VL with L4M, F10S, E70D, A84G
notes: human constant region
B4: CD81K13 HC 04-hVH_1_69 / LC 05-hVK_1_39 (antibody, V domains shown)
VH: B1 VH
VL: B1 VL with L4M, F10S, E70D
notes: human constant region
B5: CD81K13 HC 04-hVH_1_69 / LC 04-hVK_1_9 (antibody, V domains shown)
VH: B1 VH
VL: B1 VL with A84G
notes: human constant region
B6: CD81K13 HC 04-hVH_1_69 / LC 5b-hVK_1_39 (antibody, V domains shown)
VH: B1 VH
VL: B1 VL with L4M, F10S, A50G, S56D, E70D
notes: human constant region
B7: CD81K04 HC JA_GG-14-hVH_1_69-GA / LC GG-04-hVK_4_1 (antibody, V domains shown)
VH: QVQLVQSGAEVKKPGSSVKVSCKASGYTFSSSWMNWVRQAPGQGLEWMGRIYSGDGDAIYNGKFKGKATITADESTSTAYMELSSLRSEDTAVYYCAREGKTGDLLLRSWGQGTLVTVSS
VL: DIVMTQSPDSLAVSLGERATINCKSSKSVSTSIYSYLAWYQQKPGQPPKLLIYYASTRESGVPDRFSGSGSGTDFTLTISSLQAEDVAVYYCQHSREFPYTFGQGTKLEIK
notes: human constant region
B8: CD81K04 HC JA_GG-14-hVH_1_69-GA / LC JA_GG-07-hVK_7_3 (antibody, V domains shown)
VH: B7 VH
VL: DIVLTQSPASLAVSPGQRATITCRASKSVSTSIYSYMHWYQQKPGQPPKLLIKYASNKDTGVPARFSGSGSGTDFTLTINPVEANDAANYYCLHSREFPYTFGQGTKLEIK
notes: human constant region

The target in the first experiment is T1, CD81. Nature of the experiment: cell ELISA.
Protocol: For the binding cell ELISA assay, HuH7-Rluc-H3 (positive cell line expressing CD81) and HuH7-Rluc-L1 (negative control cell line) were propagated in F-12 DMEM medium with 10% FCS at 37° C. and 5% CO₂. On day 1, the cells were trypsinized at approximately 90% confluence and resuspended at 4×10⁵ cells/mL. […] On day 2, the antibody samples to be tested were prepared in a separate polypropylene round bottom plate with a twofold desired concentration with a final volume of 120 μl. All of the assay samples were diluted in cell culture medium. […] After fixation, each well was washed 3 times with 200 μL PBS/0.05% Tween. The secondary incubation step for detection of bound anti-CD81 antibodies was performed for 2 h at room temperature on a reciprocal shaker. […] Each well was washed three times with 200 μL PBS/0.05% Tween to remove unbound antibodies. […] The absorbance was read using the ELISA Tecan reader at 450 nm with 620 nm reference wavelength.
In turn, B1 gave an ELISA data of 0.52.

B2 showed an ELISA data of 0.403.

B3 came in with an ELISA data of 0.386.

B4 displayed an ELISA data of 0.776.

B5 came in with an ELISA data of 0.459.

On to B6, for which the ELISA data worked out at 0.428.

Another experiment deals with T1, CD81. Nature of the experiment: cell ELISA. The source holds these as a separate data set.
In turn, B7 registered an ELISA data of 0.12.

As for B8, the ELISA data came to 0.125.

A further experiment addresses T1, CD81. Kind of experiment: cell ELISA. This is another data set of the same source.
For B7, the ELISA data turned out to be 0.107.

Turning to B8, the ELISA data was found to be 0.107.
